# Measurements reported in patent US20150044666A1.
# Key:
# [1] = target: Recombinant HIV-1 p24 (HIV-1) (UniProt P04591); experiment: forward two-site immuno-PCR; p24 0.1 pg/mL; reporter MAb-DNA 2.5 pM
# [2] = target: Recombinant HIV-1 p24 (HIV-1) (UniProt P04591); experiment: forward two-site immuno-PCR, 10 pM reporter MAb-DNA, capture MAb 739P on particles; p24 at 10 pg/mL
# [3] = target: Recombinant HIV-1 p24 (HIV-1) (UniProt P04591); experiment: forward two-site immuno-PCR, 10 pM reporter MAb-DNA, capture MAb 739P on particles; p24 at 1 pg/mL
# [4] = target: Recombinant HIV-1 p24 (HIV-1) (UniProt P04591); experiment: forward two-site immuno-PCR, 10 pM reporter MAb-DNA, capture MAb 739P on particles; p24 at 0.1 pg/mL
# [5] = target: Recombinant HIV-1 p24 (HIV-1) (UniProt P04591); experiment: forward two-site immuno-PCR; p24 0.1 pg/mL; reporter MAb-DNA 5 pM
# [6] = target: Recombinant HIV-1 p24 (HIV-1) (UniProt P04591); experiment: forward two-site immuno-PCR; p24 0.1 pg/mL; reporter MAb-DNA 10 pM
# [7] = target: Recombinant HIV-1 p24 (HIV-1) (UniProt P04591); experiment: forward two-site immuno-PCR; p24 0.1 pg/mL; reporter MAb-DNA 50 pM
# [8] = target: Recombinant HIV-1 p24 (HIV-1) (UniProt P04591); experiment: forward two-site immuno-PCR; p24 0.1 pg/mL; reporter MAb-DNA 15 pM
# [9] = target: Recombinant HIV-1 p24 (HIV-1) (UniProt P04591); experiment: method not stated; rate and equilibrium constants listed for commercially available anti-HIV p24 antibodies
# [10] = target: Recombinant HIV-1 p24 (HIV-1) (UniProt P04591); experiment: forward two-site immuno-PCR; p24 0.1 pg/mL; reporter MAb-DNA 20 pM
# [11] = target: Recombinant HIV-1 p24 (HIV-1) (UniProt P04591); experiment: forward two-site immuno-PCR, 10 pM reporter MAb-DNA, capture MAb 739P on particles; p24 at 0.01 pg/mL
substance,measurement,setting,value
NIH AIDS Research & Reference Reagent Program HIV-1 183-H12-5C (antibody),Average ΔThreshold Cycle (ΔCp) over blank,[1],0.3 cycles
same,Threshold Cycle (Ct),[2],17.7 cycles
same,Threshold Cycle (Ct),[3],20.6 cycles
same,Threshold Cycle (Ct),[4],23.8 cycles
same,Average ΔThreshold Cycle (ΔCp) over blank,[5],2.6 cycles
same,Average ΔThreshold Cycle (ΔCp) over blank,[6],2.2 cycles
same,Average ΔThreshold Cycle (ΔCp) over blank,[7],0.9 cycles
same,Average ΔThreshold Cycle (ΔCp) over blank,[8],2 cycles
same,Kd,[9],3.93 nM
same,koff,[9],5.9e-05 s⁻¹
same,kon,[9],15000 M⁻¹ s⁻¹
same,Average ΔThreshold Cycle (ΔCp) over blank,[10],1.5 cycles
same,Threshold Cycle (Ct),[11],26.6 cycles
